Experimental data: patent publication US20210292396A1

Tests used:
Assay in all cases: cell-based or functional assay
[1] = molecular target: HIV Env of isolate DJ263.8 (HIV)
[2] = molecular target: HIV Env of isolate 6095.v1.c10 (HIV)
[3] = molecular target: Env of HIV isolate 3326.v4.c3 (clade CD) (HIV)
[4] = molecular target: Env of HIV isolate 00836-2.5 (clade C) (HIV)
[5] = molecular target: Env of HIV isolate MS208.A1 (clade A) (HIV)
[6] = molecular target: Env of HIV isolate ADA.DG (clade B) (HIV)
[7] = molecular target: Env of HIV isolate Q769.d22 (clade A) (HIV)
[8] = molecular target: Env of HIV isolate 3365.v2.c20 (clade A) (HIV)
[9] = molecular target: HIV Env of isolate ZM215.8 (HIV)
[10] = molecular target: HIV Env of isolate JRFL.JB (HIV)
[11] = molecular target: Env of HIV isolate Q259.17 (clade A) (HIV)
[12] = molecular target: Env of HIV isolate UG021.16 (clade D) (HIV)
[13] = molecular target: HIV Env of isolate 3988.25 (HIV)
[14] = molecular target: Env of HIV isolate CNE7 (clade BC) (HIV)
[15] = molecular target: Env of HIV isolate CNE30 (clade C in Table 7) (HIV)
[16] = molecular target: Env of HIV isolate CNE58 (clade C in Table 7) (HIV)
[17] = molecular target: HIV Env of isolate 269-12 (HIV)
[18] = molecular target: Env of HIV isolate 0260.v5.c36 (clade A) (HIV)
[19] = molecular target: HIV Env of isolate C1080.c3 (HIV)
[20] = molecular target: HIV Env of isolate ZA012.29 (HIV)
[21] = molecular target: Env of HIV isolate CNE20 (clade BC) (HIV)
[22] = molecular target: Env of HIV isolate 6540.v4.c1 (clade AC) (HIV)
[23] = molecular target: HIV Env of isolate MS208.A1 (HIV)
[24] = molecular target: Env of HIV isolate 3468.v1.c12 (clade AD) (HIV)
[25] = molecular target: HIV Env of isolate CNE3 (HIV)
[26] = molecular target: Env of HIV isolate T257-31 (clade AG) (HIV)
[27] = molecular target: HIV Env of isolate THRO.18 (HIV)
[28] = molecular target: HIV Env of isolate 6540.v4.c1 (HIV)
[29] = molecular target: Env of HIV isolate MN.3 (clade B) (HIV)
[30] = molecular target: HIV Env of isolate 25711-2.4 (HIV)
[31] = molecular target: Env of HIV isolate WITO.33 (clade B) (HIV)
[32] = molecular target: HIV Env of isolate TH023.6 (HIV)
[33] = molecular target: HIV Env of isolate MI369.A5 (HIV)
[34] = molecular target: Env of HIV isolate BX08.16 (clade B) (HIV)
[35] = molecular target: Env of HIV isolate CAP45.G3 (clade C) (HIV)
[36] = molecular target: HIV Env of isolate ZM109.4 (HIV)
[37] = molecular target: HIV Env of isolate 45_01dG5 (HIV)
[38] = molecular target: HIV Env of isolate 3415.v1.c1 (HIV)
[39] = molecular target: Env of HIV isolate T266-60 (clade AG) (HIV)
[40] = molecular target: HIV Env of isolate ZM233.6 (HIV)
[41] = molecular target: Env of HIV isolate DU151.02 (clade C) (HIV)
[42] = molecular target: Env of HIV isolate 3589.v1.c4 (clade AC) (HIV)

**Q.** Which IC80 [1] does the source give for PGT121 (antibody) here?
**A.** 0.202 µg/mL

**Q.** What about the IC80 [2] of the same substance?
**A.** > 50 µg/mL

**Q.** What about the IC50, pseudovirus neutralization [3] of the same substance?
**A.** > 50 µg/mL

**Q.** And the IC50, pseudovirus neutralization [4]?
**A.** > 50 µg/mL

**Q.** And the IC50, pseudovirus neutralization [5]?
**A.** > 50 µg/mL

**Q.** What about the IC50, pseudovirus neutralization [6] of the same substance?
**A.** 0.0333 µg/mL

**Q.** And the IC50, pseudovirus neutralization [7]?
**A.** > 50 µg/mL

**Q.** And the IC50, pseudovirus neutralization [8]?
**A.** 0.112 µg/mL

**Q.** And the IC80, pseudovirus neutralization [9]?
**A.** 0.084 µg/mL

**Q.** What about the IC80 [10] of the same substance?
**A.** 0.107 µg/mL

**Q.** What about the IC50, pseudovirus neutralization [11] of the same substance?
**A.** > 50 µg/mL

**Q.** What about the IC50, pseudovirus neutralization [12] of the same substance?
**A.** 0.916 µg/mL

**Q.** And the IC80 [13]?
**A.** 0.0287 µg/mL

**Q.** What about the IC50, pseudovirus neutralization [14] of the same substance?
**A.** 0.0477 µg/mL

**Q.** And the IC50, pseudovirus neutralization [15]?
**A.** 0.114 µg/mL

**Q.** And the IC50, pseudovirus neutralization [16]?
**A.** 9.34 µg/mL

**Q.** What about the IC80 [17] of the same substance?
**A.** 0.627 µg/mL

**Q.** And the IC50, pseudovirus neutralization [18]?
**A.** 0.0587 µg/mL

**Q.** What about the IC80 [19] of the same substance?
**A.** > 50 µg/mL

**Q.** What about the IC80, pseudovirus neutralization [20] of the same substance?
**A.** 0.0347 µg/mL

**Q.** And the IC50, pseudovirus neutralization [21]?
**A.** 0.005 µg/mL

**Q.** And the IC50, pseudovirus neutralization [22]?
**A.** > 50 µg/mL

**Q.** And the IC80 [23]?
**A.** > 50 µg/mL

**Q.** What about the IC50, pseudovirus neutralization [24] of the same substance?
**A.** 0.0763 µg/mL

**Q.** What about the IC80 [25] of the same substance?
**A.** > 50 µg/mL

**Q.** And the IC50, pseudovirus neutralization [26]?
**A.** > 50 µg/mL

**Q.** And the IC80 [27]?
**A.** > 50 µg/mL

**Q.** And the IC80 [28]?
**A.** > 50 µg/mL

**Q.** And the IC50, pseudovirus neutralization [29]?
**A.** > 50 µg/mL

**Q.** And the IC80, pseudovirus neutralization [30]?
**A.** 0.0497 µg/mL

**Q.** What about the IC50, pseudovirus neutralization [31] of the same substance?
**A.** 0.479 µg/mL

**Q.** And the IC80 [32]?
**A.** > 50 µg/mL

**Q.** And the IC80 [33]?
**A.** 0.128 µg/mL

**Q.** What about the IC50, pseudovirus neutralization [34] of the same substance?
**A.** 0.00933 µg/mL

**Q.** What about the IC50, pseudovirus neutralization [35] of the same substance?
**A.** 0.866 µg/mL

**Q.** And the IC80, pseudovirus neutralization [36]?
**A.** > 50 µg/mL

**Q.** And the IC80 [37]?
**A.** 0.0257 µg/mL

**Q.** What about the IC80 [38] of the same substance?
**A.** > 50 µg/mL

**Q.** And the IC50, pseudovirus neutralization [39]?
**A.** 0.143 µg/mL

**Q.** And the IC80, pseudovirus neutralization [40]?
**A.** 3.6 µg/mL

**Q.** What about the IC50, pseudovirus neutralization [41] of the same substance?
**A.** 0.0117 µg/mL

**Q.** And the IC50, pseudovirus neutralization [42]?
**A.** > 50 µg/mL
